The assay has as its target T1, conserved N-terminus of yeast Asf1 (residues 2–155) (S. cerevisiae, UniProt P32447 2-155).
T1 construct: Asf1 (anti-silencing function 1), budding yeast, residues 2-155; Written as a molecule of its own for the pair; also called Asf1N; ScAsf1; source: E. coli, purified (Ni-chromatography, TEV cleavage, second Ni step, gel filtration); not shown: His6, N-terminal, cleaved; MBP, N-terminal, cleaved
The experiment in a line: crystal structure; Asf1N fused to H3α3 by the linker AAGAATAA on one chain; hanging-drop vapor diffusion, 18°C, 85 mM Tris-HCl (pH 8.5), 120 mM Li2SO4, 25% PEG 4000, 15% glycerol; 2.2 Å. The settings on record: both partners purified.

We go through 1 molecule from article PMC1762009, “Structure of the yeast histone H3-ASF1 interaction: implications for chaperone mechanism, species-specific interactions, and epigenetics” (BMC Structural Biology, 2006).

T1 sequence (P32447 2-155): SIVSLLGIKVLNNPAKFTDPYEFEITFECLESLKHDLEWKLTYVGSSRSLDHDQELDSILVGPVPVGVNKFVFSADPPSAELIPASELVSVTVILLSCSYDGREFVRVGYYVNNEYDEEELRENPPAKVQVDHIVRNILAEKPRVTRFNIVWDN

B1: C-terminal α3 helix of yeast histone H3 (residues 121–134) (domain or fragment, S. cerevisiae, UniProt P61830 122-135, looked up)
chain: KKDIKLARRLRGER
notes: histone H3, budding yeast, C-terminal alpha helix, amino acids 121-134; The final model holds H3 residues 121-131 only; also called H3α3; ScH3 121-134; source: E. coli, purified (Ni-chromatography, TEV cleavage, second Ni step, gel filtration), as a fusion behind Asf1N
B1: the binding result is reported as “binds”.
